Measured values as given in publication PMC10448054.

Biological target: N-protein of the wild-type Cne PRP8 S0 split mini-intein with C1A, maltose-binding protein fused to N-intein (MI^A N) (Cryptococcus neoformans)
Assay: SPR; Biacore T100; N-proteins (WTNa, ENa) immobilised on a CM5 chip; C-terminal fusion proteins flowed at different concentrations in 10 mM HEPES, 150 mM NaCl, 1 mM EDTA, pH 7.4; KD = kd/ka

With “C-protein of the wild-type Cne PRP8 S0 split mini-intein with N185A, C-intein fused to thioredoxin (I^A CT) (domain or fragment)” the Ka was 608000 M⁻¹, the Kd was 1650 nM and the koff was 0.0082 s⁻¹. It also gave a kon of 4990 M⁻¹ s⁻¹.
